Molecular target: T1, (FNRD154A)2-His6 D154A (Escherichia coli) (UniProt P0A9E5)
T1 sequence: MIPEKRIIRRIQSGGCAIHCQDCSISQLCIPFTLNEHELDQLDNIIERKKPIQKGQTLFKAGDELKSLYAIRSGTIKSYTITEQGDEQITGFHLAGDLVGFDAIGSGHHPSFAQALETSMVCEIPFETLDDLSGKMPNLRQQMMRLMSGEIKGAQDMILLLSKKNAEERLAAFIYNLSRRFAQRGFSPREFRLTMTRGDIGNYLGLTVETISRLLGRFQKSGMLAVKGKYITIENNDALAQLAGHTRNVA
Test: EMSA
Settings: 20 mM Tris, 50 mM NaCl, 40 mM EDTA ([…], pH 6.8, 30 min at 37 C

In the case of “TCAGGCAGATAAACCCGTTCTTTGGCCTTGCCACTTAAAGTGCCAAAATCAATCTCCGTACTGATTTTCTCCGGTGTAAAAGAAAGCCCAGTATCAGAAGCCAGTGCAGCAAACGCTACAGGAGCTGAGAGTGCAGTAGCAAGAATCTTTAAGTACATAGACAAGTTAACTCCATTCCACTCGTTTGTTTTTGATAAATATTTTTTTATTTACTCGTAGTAGTCAACTGAAAAATGCTGTTTTGTTTAACGTTTGTTT (double strand) [ompT plasmid promoter PCR product]”, the binding is reported as “binds”.

From paper PMC5481319
